Like-named read-outs stand apart in the source and are kept apart here.
B1: NADPH-cyt-P450 reductase: Rabbit liver NADPH-cyt-P450 reductase purchased from Sigma Chemical Co. (protein, listed as Oryctolagus cuniculus)
chain: LINMADSHGDTGATMPEAAAQEASVFSMTDVVLFSLIVGLITYWFLFRKKKEEVPEFTKIQAPTSSSVKESSFVEKMKKTGRNIVVFYGSQTGTAEEFANRLSKDAHRYGMRGMAADPEEYDLADLSSLPEINNALAVFCMATYGEGDPTDNAQDFYDWLQETDVDLSGVKYAVFGLGNKTYEHFNAMGKYVDQRLEQLGAQRIFELGMGDDDANLEEDFITWREQFWPAVCEHFGVEATGEESSIRQYELVLHTDIDVAKVYQGEMGRLKSYENQKPPFDAKNPFLATVTTNRKLNQGTERHLMHLELDISDSKIRYESGDHVAVYPANDSALVNQLGEILGADLDVVMSLNNLDEESNKKHPFPCPTSYRTALTYYLDITNPPRTNVLYELAQYAADPAEQEQLRKMASSSGEGKELYLSWVVEARRHILAILQDYPSLRPPIDHLCELLPRLQARYYSIASSSKVHPNSVHICAVAVEYETKAGRLNKGVATSWLRAKEPAGENGGRALVPMFVRKSQFRLPFKATTPVIMVGPGTGVAPFIGFIQERAWLRQQGKEVGETLLYYGCRRAAEDYLYREELAGFQKDGTLSQLNVAFSREQAQKVYVQHLLRRDKEHLWRLIHEGGAHIYVCGDARNMARDVQNTFYDIVAELGAMEHAQAVDYVKKLMTKGRYSLDVWS
B2: NAD(P)H:FMN reductase: Photobacterium fischeri NAD(P)H:FMN reductase purchased from Roche (protein, listed as Vibrio fischeri)
chain: MPINCKVKSIEPLACNTFRILLHPEQPVAFKAGQYLTVVMGEKDKRPFSIASSPCRHEGEIELHIGAAEHNAYAGEVVESMKSALETGGDILIDAPHGEAWIREDSDRSMLLIAGGTGFSYVRSILDHCISQQIQKPIYLYWGGRDECQLYAKAELESIAQAHSHITFVPVVEKSEGWTGKTGNVLEAVKADFNSLADMDIYIAGRFEMAGAAREQFTTEKQAKKEQLFGDAFAFI
B3: Fre: E. coli flavin reductase (SEQ ID NO: 19), purified electron transferase (protein, listed as Escherichia coli)
chain: MTTLSCKVTSVEAITDTVYRVRIVPDAAFSFRAGQYLMVVMDERDKRPFSMASTPDEKGFIELHIGASEINLYAKAVMDRILKDHQIVVDIPHGEAWLRDDEERPMILIAGGTGFSYARSILLTALARNPNRDITIYWGGREEQHLYDLCELEALSLKHPGLQVVPVVEQPEAGWRGRTGTVLTAVLQDHGTLAEHDIYIAGRFEMAKIARDLFCSERNAREDRLFGDAFAFI
B4: cytochrome b5 reductase: Recombinant soluble domain of rat hepatic cytochrome b5 reductase (protein, listed as Rattus norvegicus)
chain: MGAQLSTLSRVVLSPVWFVYSLFMKLFQRSSPAITLENPDIKYPLRLIDKEIISHDTRRFRFALPSPQHILGLPIGQHIYLSTRIDGNLVIRPYTPVSSDDDKGLVDLVVKVYFKDTHPKFPAGGKMSQYLENMNIGDTIEFRGPNGLLVYQGKGKFAIRADKKSNPVVRTVKSVGMIAGGTGITPMLQVIRAVLKDPNDHTVCYLLFANQSEKDILLRPELEELRNEHSSRFKLWYTVDKAPDAWDYSQGFVNEEMIRDHLPPPGEETLILMCGPPPMIQFACLPNLERVGHPKERCFTF
B5: FNR: Spinach ferredoxin NADP reductase (protein, UniProt P00455 56-369, looked up)
Ferredoxin--NADP reductase, …: QIASDVEAPPPAPAKVEKHSKKMEEGITVNKFKPKTPYVGRCLLNTKITGDDAPGETWHMVFSHEGEIPYREGQSVGVIPDGEDKNGKPHKLRLYSIASSALGDFGDAKSVSLCVKRLIYTNDAGETIKGVCSNFLCDLKPGAEVKLTGPVGKEMLMPKDPNATIIMLGTGTGIAPFRSFLWKMFFEKHDDYKFNGLAWLFLGVPTSSSLLYKEEFEKMKEKAPDNFRLDFAVSREQTNEKGEKMYIQTRMAQYAVELWEMLKKDNTYFYMCGLKGMEKGIDDIMVSLAAAEGIDWIEYKRQLKKAEQWNVEVY

How the values were obtained:
PrnA [1] = target: T1, PrnA (Pseudomonas fluorescens, UniProt P95480); format: biochemical; set-up: made in house; host or cells: Pseudomonas fluorescens BL915deltaORF1-4 with plasmid pPEH14 (prnA); conditions: 20 microliter PrnA, 20 microliter electron transferase, 20.5 hours, room temperature, triplicate
Experimental: Protein concentration or the preparation is 0.36 mg/ml.
Either a NADH dependent mixture or a NADPH mixture is used as indicated below. An NADH-dependent assay mixture is prepared by adding 12 mg of NADH to 4.5 ml of above described assay mixture. A NADPH-dependent assay mixture is prepared by adding 3 mg NADPH to 1 ml of the above described assay mixture.
The reactions 1-7, described below, are set up in polypropylene tubes in triplicate. After mixing PrnA, the indicated assay mixture and electron transferase, samples are vortexed, then mixed by inversion at room temperature. […] The HPLC analysis is by Method Set PrnA1 (described below), the injection volume is 50 microliter, and data are collected for the first 6 minutes.
Standards are prepared by mixing 5 or 10 microliter 7-Cl-Trp (1 mM) with sufficient 50 mM HEPES, pH 7.5 to bring the final volume to 200 microliter. D-Trp is eluted at ˜2 min and 7-Cl-trp is eluted at 4.3 min, as indicated by the elution of the authentic D-Trp and 7-Cl-Trp. The quantity of 7-Cl-trp is determined by comparison to a standard curve. Reported activities are the net increase in 7-Cl-Trp after addition of the electron transferase.
A Waters Alliance HPLC system with photodiode array detector is used. The Waters Alliance HPLC is equipped with a 4.6×50 mm column packed with C18-Silica, particle size 3 micrometer. A gradient elution method designated here as PrnA1 is used. Flow rates are 1 ml/min throughout and absorbance data are collected from 210 to 400 nm with a resolution of 1.2 nm and a sampling rate of 1/s. The system as pre-equilibrated with an 85:15 mixture of water:methanol. After injection of the sample the column is developed with a 6 min gradient from the starting conditions to a 40:60 water:methanol mixture. Then from 6.0 to 7.0 min the concentration of methanol is increased to 100% in a linear gradient. The column is washed for 1 min with 100% methanol, then re-equilibrated. D-Trp eluted at ˜2 min and 7-Cl-trp eluted at 4.3 min, as indicated by the elution of authentic D-Trp and 7-Cl-Trp.

PrnA [2] = target: T1, PrnA; experiment: Activation of PrnA by electron transferases, 2 h assay (Example 2); format: biochemical; set-up: made in house; host or cells: Pseudomonas fluorescens BL915deltaORF1-4 with plasmid pPEH14 (prnA); conditions: 20 microliter PrnA, 50 microliter NADH, 50 microliter electron transferase, room temperature
Experimental: The following components are used in examples 1-4 below: PrnA (described for Example 1 above) at 0.36 mg/ml, Assay Mixture containing HEPES (100 mM), glucose-6-phosphate, disodium salt (50 mM), D-Trp (5 mM), NaCl (5 mM). Aspergillus niger catalase (39 U/ml), bovine erythrocyte superoxide dismutase (15 U/ml), Leuconostoc mesenteroides glucose-6-phosphate dehydrogenase (10 U/ml). NADH-(3 mg/ml) NADPH (3 mg/ml).
Each assay contains the assay mixture, either NADH (for samples containing Fre and the NAD(P)H:FMN reductase) or NADPH (for samples containing FNR or FNR and Fd), PrnA and the indicated electron transferase. Negative control samples are incubated in parallel; these substituted buffer for PrnA. Quantification standards are prepared by diluting 0,1, 2 or 5 microliter of 7-Cl-Trp standard (1 mM) in 100 microliter Assay Mixture, 50 microliter NADH, 20 microliter PrnA and 50 microliter buffer; the tubes were heated to 100 C. prior to addition of PrnA, then heated an additional 2 min. Further processing is in parallel with the enzymatic reactions. All samples are mixed for 2 h at room temperature. Reactions are stopped and samples processed as described above in Example 1, including using the HPLC Analytical method PrnA1 as described in Example 1.

PrnC = target: T2, PrnC (Pseudomonas fluorescens, UniProt P95482); experiment: In vitro halogenation with PrnC: chlorination of MDA to APRN (Example 3); format: biochemical, P. fluorescens; conditions: Extract #2 (PrnC depleted of P2) plus 20 microliter electron transferase, NADH, overnight
T2 construct: made in house; host or cells: P. fluorescens (pPEH/prnC/134Δprn), plasmid pPEH-PrnC with tac promoter
T2 sequence (P95482 whole entry, looked up): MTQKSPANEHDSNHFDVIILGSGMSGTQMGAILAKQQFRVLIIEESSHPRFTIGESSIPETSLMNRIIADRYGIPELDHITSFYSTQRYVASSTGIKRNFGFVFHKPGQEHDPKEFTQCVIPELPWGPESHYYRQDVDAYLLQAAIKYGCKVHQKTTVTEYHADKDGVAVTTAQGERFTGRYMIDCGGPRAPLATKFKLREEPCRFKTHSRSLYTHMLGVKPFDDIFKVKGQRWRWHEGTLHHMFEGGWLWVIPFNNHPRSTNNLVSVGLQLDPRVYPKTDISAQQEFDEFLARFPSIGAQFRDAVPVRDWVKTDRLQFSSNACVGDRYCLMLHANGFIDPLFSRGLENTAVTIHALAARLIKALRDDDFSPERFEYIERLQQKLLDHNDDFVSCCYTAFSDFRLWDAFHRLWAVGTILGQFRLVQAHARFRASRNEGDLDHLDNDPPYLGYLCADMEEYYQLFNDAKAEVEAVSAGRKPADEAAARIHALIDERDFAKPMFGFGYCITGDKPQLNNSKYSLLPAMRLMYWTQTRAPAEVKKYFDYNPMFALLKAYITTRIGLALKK
Experimental: Fre, ferrodoxin NADP reductase, ferrodoxin and NADPH FMN-reductase are tested for the ability to activate P. fluorescens PrnC that was depleted of endogenous electron transferase (P2) as described below. PrnC catalyzes chlorination of monodechloroaminopyrrolnitrin (MDA) to yield aminopyrrolnitrin (APRN).
The following materials are prepared for use in assays described below. Buffer 100 mM Tris/Cl, 1 mM EDTA. pH 7.5. Monodechloroaminopyrrolnitrin (MDA) 74.2 mM is prepared by culture of Pseudomonas fluorescens expressing PrnA and PrnB as described in (Kirner et al,1998) which is herein incorporated by reference in its entirety. The assay mix comprises FAD (5 μM) and MDA (742 μM) in buffer. NADH is dissolved in buffer at a concentration of 6 mg/ml. or NADPH is dissolved in buffer at a concentration of 6 mg/ml. Extract #1 is a crude extract in buffer containing PrnC and the endogenous electron transferase P2 described above in example 1. […]
The assays described below are run as follows; Extract #2 is mixed with the indicated electron transferase, assay mix and either NADH or NADPH as indicated. The native activity of PrnC prior to removal of the P2 activity is determined by a parallel sample in which extract #1 is mixed with assay mix and NADH. […] Samples are analyzed by PrnC_Iso method described below. The 220 nm absorbance chromatogram is analyzed and integrated. PrnC activity is expressed as 100 times the ratio of the APRN peak area to the sum of the peak areas of APRN and MDA. Assuming equal extinction coefficients at 220 nm the calculated ratio is equivalent to the net % conversion of MDA to APRN by halogenation.
HPLC Analytical method PrnC_Iso The HPLC instrument used is a Waters Alliance HPLC system with photodiode array detector and is equipped with a 4.6×50 mm column packed with C18-Silica, particle size 3 micrometer. […] Absorbance data are collected from 210 to 400 nm with a resolution of 2.4 nm and a sampling rate of 5/s. […]

T1 sequence (P95480 whole entry): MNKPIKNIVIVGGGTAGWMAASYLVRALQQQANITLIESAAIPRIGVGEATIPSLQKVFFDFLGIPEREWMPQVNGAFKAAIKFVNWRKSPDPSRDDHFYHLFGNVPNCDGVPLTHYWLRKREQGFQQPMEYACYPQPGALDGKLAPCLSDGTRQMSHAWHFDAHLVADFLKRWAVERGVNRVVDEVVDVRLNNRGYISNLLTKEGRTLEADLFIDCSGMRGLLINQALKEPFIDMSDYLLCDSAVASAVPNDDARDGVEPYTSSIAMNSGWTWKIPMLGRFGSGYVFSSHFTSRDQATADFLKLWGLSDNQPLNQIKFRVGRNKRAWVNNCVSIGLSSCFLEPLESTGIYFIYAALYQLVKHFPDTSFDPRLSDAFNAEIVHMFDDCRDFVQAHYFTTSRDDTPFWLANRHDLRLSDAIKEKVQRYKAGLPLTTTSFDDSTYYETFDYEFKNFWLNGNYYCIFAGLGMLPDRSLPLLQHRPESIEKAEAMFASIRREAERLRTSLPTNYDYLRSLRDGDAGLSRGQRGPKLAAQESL

Molecule | net product formation 7-Cl-Trp (PrnA [1]; NADPH mixture) [nmol] | Net 7-Cl-Trp produced (PrnA [2]) [nmol] | PrnC activity, conversion of MDA to APRN (PrnC) [%] | net product formation 7-Cl-Trp (PrnA [1]; NADH mixture) [nmol]
B1 | 3.35 ± 0.23 | – | – | –
B2 | – | 0.11 | 4.0 | –
B3 | – | 8.44 | 51.8 | 21.46 ± 1.02
B4 | – | – | – | 0.31 ± 0.11
B5 | – | 4.22 | 1.8 | –

From patent US20030135880A1, “Compositions and methods for halogenation reactions” (priority 2002, published 2003)
